Data reported in the RNAGym collection of RNA variant scans (doi:10.7554/elife.90254).

B1: OR4K15 (parent)
chain: GUUAACGGUCAUAGGCCAUGGAAACUAGGAGCACCAUUUCGCUGCCAGUGAAGAAAUGAACAAAGAAAAUCUGGGCCAGGCAGGCAUCAAAAGAAAUAGUCUUGCGCUCAACCAGAAAGUCUGUAAUCAUUUUAAGGGUA

Variants of: B1
Assay: self-cleavage, relative activity (ratio to wild type); higher = more cleavage; in vitro, sequencing; the parent is a self-cleaving ribozyme

First: GUUAACGGUCAUAGGCCAUGGAAACUAGGAGCACCAUUUCGCUGCCAGUGAAGAAAUGAACAAAGAAAAUCAGGGCCAGGCAGGCAUCAAAAGAAAUAGUCUUGCGCACAACCAGAAAGUCUGUAAUCAUUUUAAGGGUA [U72A U108A]
Second: GUUAACGGUCAUAGGCCAUGGAAACUAGGAGCACCAUUUCGCUGCCAGUGAAGAAAUGAACAAAGAAAAUCAGGGCCAGGCAGGCAUCAAAAGAAAUAGUCUUGCGCCCAACCAGAAAGUCUGUAAUCAUUUUAAGGGUA [U72A U108C]
The self-cleavage of the first is higher: 0.04 for the first, 0.01 for the second.

Compared with GUUAACGGUCAUAGGCCAUGGAAACUAGGAGCACCAUUUCGCUGCCAGUGAAGAAAUGAACAAAGAAAAUCCGGGCCAGGCAGGCAUCAAAAGAAAUAGUCUUGCGCUCAACCAGAAAGUCUGUAAUCAUUUUGAGGGUA [U72C A134G], GUUAACGGUCAUAGGCCAUGGAAACUAGGAGCACCAUUUCGCUGCCAGUGAAGAAAUGAACAAAGAAAAUCCGGGCCAGGCAGGCAUCAAAAGAAAUAGUCUUGCGCUCAACCAGAAAGUCUGUAAUCUUUUUAAGGGUA [U72C A129U] is lower in self-cleavage: 0.16 for the first, 0.07 for the second.

Going from GUUAACGGUCAUAGGCCAUGGAAACUAGGAGCACCAUUUCGCUGCCAGUGAAGAAAUGAACAAAGAAAAUCCGGGCCAGGCAGGCAUCAAAAGAAAUAGUCUUGCGCUCAACCAGAAAGUCUGUAAUCAUUUUAAGGGUG [U72C A140G] to GUUAACGGUCAUAGGCCAUGGAAACUAGGAGCACCAUUUCGCUGCCAGUGAAGAAAUGAACAAAGAAAAUCCGGGCCAGGCAGGCAUCAAGAGAAAUAGUCUUGCGCUCAACCAGAAAGUCUGUAAUCAUUUUAAGGGUA [U72C A91G], the self-cleavage falls from 0.34 to 0.05.

Going from GUUAACGGUCAUAGGCCAUGGAAACUAGGAGCACCAUUUCGCUGCCAGUGAAGAAAUGAACAAAGAAAAUCCGGGCCAGGCAGGCAUCAAAAGAAAUAGUCAUGCGCUCAACCAGAAAGUCUGUAAUCAUUUUAAGGGUA [U72C U102A] to GUUAACGGUCAUAGGCCAUGGAAACUAGGAGCACCAUUUCGCUGCCAGUGAAGAAAUGAACAAAGAAAAUCCGGGCCAGGCAGGCAUCAAAAGAAAUAGUCUUGAGCUCAACCAGAAAGUCUGUAAUCAUUUUAAGGGUA [U72C C105A], the self-cleavage falls from 0.07 to 0.03.

Compared with GUUAACGGUCAUAGGCCAUGGAAACUAGGAGCACCAUUUCGCUGCCAGUGAAGAAAUGAACAAAGAAAAUCCGGGCCAGGCAGGCAUCAAAAGAAAUAGUCUUGCGCUCAACCAGAAAGUCUGUAAUAAUUUUAAGGGUA [U72C C128A], GUUAACGGUCAUAGGCCAUGGAAACUAGGAGCACCAUUUCGCUGCCAGUGAAGAAAUGAACAAAGAAAAUCCGGGCCAGACAGGCAUCAAAAGAAAUAGUCUUGCGCUCAACCAGAAAGUCUGUAAUCAUUUUAAGGGUA [U72C G80A] is higher in self-cleavage: 0.13 for the first, 0.38 for the second.

First: GUUAACGGUCAUAGGCCAUGGAAACUAGGAGCACCAUUUCGCUGCCAGUGAAGAAAUGAACAAAGAAAAUCCGGGCCAGGCAGGCAUCAAAAGAAAUAGUCUUGCACUCAACCAGAAAGUCUGUAAUCAUUUUAAGGGUA [U72C G106A]
Second: GUUAACGGUCAUAGGCCAUGGAAACUAGGAGCACCAUUUCGCUGCCAGUGAAGAAAUGAACAAAGAAAAUCAGGGCCAGGCAGGCAUCAAAAGAAAUAGUCUUGCGCUCAACCAGAAAGUCUGGAAUCAUUUUAAGGGUA [U72A U124G]
The self-cleavage of the first is lower: 0.02 for the first, 0.12 for the second.

Going from GUUAACGGUCAUAGGCCAUGGAAACUAGGAGCACCAUUUCGCUGCCAGUGAAGAAAUGAACAAAGAAAAUCAGGGCCAGGCAGGCAUCAAAAGAAAUAGUCUUGCGCUCAACCAGAAAGUCUGAAAUCAUUUUAAGGGUA [U72A U124A] to GUUAACGGUCAUAGGCCAUGGAAACUAGGAGCACCAUUUCGCUGCCAGUGAAGAAAUGAACAAAGAAAAUCAGGGCCAGGCAGGCACCAAAAGAAAUAGUCUUGCGCUCAACCAGAAAGUCUGUAAUCAUUUUAAGGGUA [U72A U87C], the self-cleavage rises from 0.1 to 0.19.

Compared with GUUAACGGUCAUAGGCCAUGGAAACUAGGAGCACCAUUUCGCUGCCAGUGAAGAAAUGAACAAAGAAAAUCAGGGCCAGGCAGGCAACAAAAGAAAUAGUCUUGCGCUCAACCAGAAAGUCUGUAAUCAUUUUAAGGGUA [U72A U87A], GUUAACGGUCAUAGGCCAUGGAAACUAGGAGCACCAUUUCGCUGCCAGUGAAGAAAUGAACAAAGAAAAUCCGGGCCAGGCAGGCAUCAAAAGAAAUAGUCUUGCGCUCAACCAGAAAGUCUGUAAUCAUUUUAAGGGUA [U72C] is lower in self-cleavage: 0.37 for the first, 0.12 for the second.

Going from GUUAACGGUCAUAGGCCAUGGAAACUAGGAGCACCAUUUCGCUGCCAGUGAAGAAAUGAACAAAGAAAAUCCGGGCCAGGCAGGCAUCAAAAGAAAUAGUCUUGCGCUCAACCAGAAGGUCUGUAAUCAUUUUAAGGGUA [U72C A118G] to GUUAACGGUCAUAGGCCAUGGAAACUAGGAGCACCAUUUCGCUGCCAGUGAAGAAAUGAACAAAGAAAAUCAGGGCCAGGCAGGCAUCAAAAGAAAUAGUCUUGCGCUCAACCAGAAAGUCUGUAAACAUUUUAAGGGUA [U72A U127A], the self-cleavage rises from 0.1 to 0.64.

First: GUUAACGGUCAUAGGCCAUGGAAACUAGGAGCACCAUUUCGCUGCCAGUGAAGAAAUGAACAAAGAAAAUCAGGGCCAGGCAGGCAUCAAAAGAAAUAGUCUUGCGCUCAACCAGAAAAUCUGUAAUCAUUUUAAGGGUA [U72A G119A]
Second: GUUAACGGUCAUAGGCCAUGGAAACUAGGAGCACCAUUUCGCUGCCAGUGAAGAAAUGAACAAAGAAAAUCAGGGCCAGGCAGGCAUCAAAAGAAAUAGUCUUGCGCUCAACCAGAAAGUCUGUAAUCAUUUGAAGGGUA [U72A U133G]
The self-cleavage of the first is higher: 0.47 for the first, 0.36 for the second.

Going from GUUAACGGUCAUAGGCCAUGGAAACUAGGAGCACCAUUUCGCUGCCAGUGAAGAAAUGAACAAAGAAAAUCCGGGCCAGGCAGGCAUCAAAAGAAAUAGUCUUGCGCUCAACCAGAAAGUCUGUAAUCAUUUUAAGGAUA [U72C G138A] to GUUAACGGUCAUAGGCCAUGGAAACUAGGAGCACCAUUUCGCUGCCAGUGAAGAAAUGAACAAAGAAAAUCAGGGCCAGGCAGGCAUCAAAAGAAAUAGGCUUGCGCUCAACCAGAAAGUCUGUAAUCAUUUUAAGGGUA [U72A U100G], the self-cleavage falls from 0.49 to 0.19.

First: GUUAACGGUCAUAGGCCAUGGAAACUAGGAGCACCAUUUCGCUGCCAGUGAAGAAAUGAACAAAGAAAAUCAGGGCCAGGCAGGCAUCAAAAGAAAUAGCCUUGCGCUCAACCAGAAAGUCUGUAAUCAUUUUAAGGGUA [U72A U100C]
Second: GUUAACGGUCAUAGGCCAUGGAAACUAGGAGCACCAUUUCGCUGCCAGUGAAGAAAUGAACAAAGAAAAUCCGGGCCAGGCAGGCAUCAAAAGAAAUAGUCUUGCGUUCAACCAGAAAGUCUGUAAUCAUUUUAAGGGUA [U72C C107U]
The self-cleavage of the first is higher: 0.4 for the first, 0.01 for the second.

Going from GUUAACGGUCAUAGGCCAUGGAAACUAGGAGCACCAUUUCGCUGCCAGUGAAGAAAUGAACAAAGAAAAUCCGGGCCAGGCAAGCAUCAAAAGAAAUAGUCUUGCGCUCAACCAGAAAGUCUGUAAUCAUUUUAAGGGUA [U72C G83A] to GUUAACGGUCAUAGGCCAUGGAAACUAGGAGCACCAUUUCGCUGCCAGUGAAGAAAUGAACAAAGAAAAUCAGGGCCAGGCAGGCAUCAAAAGAAAUAGUCUUGCGCUCAACCAGAAAGCCUGUAAUCAUUUUAAGGGUA [U72A U120C], the self-cleavage rises from 0.08 to 0.18.

First: GUUAACGGUCAUAGGCCAUGGAAACUAGGAGCACCAUUUCGCUGCCAGUGAAGAAAUGAACAAAGAAAAUCCGGGCCCGGCAGGCAUCAAAAGAAAUAGUCUUGCGCUCAACCAGAAAGUCUGUAAUCAUUUUAAGGGUA [U72C A78C]
Second: GUUAACGGUCAUAGGCCAUGGAAACUAGGAGCACCAUUUCGCUGCCAGUGAAGAAAUGAACAAAGAAAAUCCGGGCCGGGCAGGCAUCAAAAGAAAUAGUCUUGCGCUCAACCAGAAAGUCUGUAAUCAUUUUAAGGGUA [U72C A78G]
The self-cleavage of the first is higher: 0.27 for the first, 0.25 for the second.

Going from GUUAACGGUCAUAGGCCAUGGAAACUAGGAGCACCAUUUCGCUGCCAGUGAAGAAAUGAACAAAGAAAAUCCGGGCCAGGCAGGCAUCAAAAGAAAUAGUCUUGCGCUCAACCGGAAAGUCUGUAAUCAUUUUAAGGGUA [U72C A114G] to GUUAACGGUCAUAGGCCAUGGAAACUAGGAGCACCAUUUCGCUGCCAGUGAAGAAAUGAACAAAGAAAAUCCGGGCCAGGCAGGCAUCAAAAGAAAUAGUCUUGCGCUCAGCCAGAAAGUCUGUAAUCAUUUUAAGGGUA [U72C A111G], the self-cleavage falls from 2.31 to 0.02.

First: GUUAACGGUCAUAGGCCAUGGAAACUAGGAGCACCAUUUCGCUGCCAGUGAAGAAAUGAACAAAGAAAAUCCGGGCCAGGCAGGCAUCAAAAGAAAUAGUCUUGCGCUCAACCAGAGAGUCUGUAAUCAUUUUAAGGGUA [U72C A117G]
Second: GUUAACGGUCAUAGGCCAUGGAAACUAGGAGCACCAUUUCGCUGCCAGUGAAGAAAUGAACAAAGAAAAUCCGGGCCAGGCAGGCAUCAAAAGAAAUAGUCUUGCGCUCAACCAGACAGUCUGUAAUCAUUUUAAGGGUA [U72C A117C]
The self-cleavage of the first is higher: 0.22 for the first, 0.08 for the second.

GUUAACGGUCAUAGGCCAUGGAAACUAGGAGCACCAUUUCGCUGCCAGUGAAGAAAUGAACAAAGAAAAUCCGGGCCAGGCAGGCAUCAAAAGAGAUAGUCUUGCGCUCAACCAGAAAGUCUGUAAUCAUUUUAAGGGUA [U72C A95G] and GUUAACGGUCAUAGGCCAUGGAAACUAGGAGCACCAUUUCGCUGCCAGUGAAGAAAUGAACAAAGAAAAUCCGGGCCAGGCAGGCAUCAAAAGAUAUAGUCUUGCGCUCAACCAGAAAGUCUGUAAUCAUUUUAAGGGUA [U72C A95U] are the same in self-cleavage: 0.35 for the first, 0.35 for the second.

First: GUUAACGGUCAUAGGCCAUGGAAACUAGGAGCACCAUUUCGCUGCCAGUGAAGAAAUGAACAAAGAAAAUCAGGGCCAGGCAGGCAUCAAAAGAAAUAGUCUUGCGCUCAACCAGAAAGUCUGUAAUCAUCUUAAGGGUA [U72A U131C]
Second: GUUAACGGUCAUAGGCCAUGGAAACUAGGAGCACCAUUUCGCUGCCAGUGAAGAAAUGAACAAAGAAAAUCAGGGCCAGGCAGGCAUCAAAAGAAAUAGUCCUGCGCUCAACCAGAAAGUCUGUAAUCAUUUUAAGGGUA [U72A U102C]
The self-cleavage of the first is lower: 0.14 for the first, 0.58 for the second.

Going from GUUAACGGUCAUAGGCCAUGGAAACUAGGAGCACCAUUUCGCUGCCAGUGAAGAAAUGAACAAAGAAAAUCCGGGCCAGGCAGGCAUCGAAAGAAAUAGUCUUGCGCUCAACCAGAAAGUCUGUAAUCAUUUUAAGGGUA [U72C A89G] to GUUAACGGUCAUAGGCCAUGGAAACUAGGAGCACCAUUUCGCUGCCAGUGAAGAAAUGAACAAAGAAAAUCCGGGCCAGGCAGGCAUCAAAAGAAAUAGUCUUGCGCUCAACCAGAAAGUCUGUAAUCAUUUUAAAGGUA [U72C G136A], the self-cleavage rises from 0.24 to 0.7.

First: GUUAACGGUCAUAGGCCAUGGAAACUAGGAGCACCAUUUCGCUGCCAGUGAAGAAAUGAACAAAGAAAAUCCGGGCCAGGCAGGCAUCAAAAGAAAUUGUCUUGCGCUCAACCAGAAAGUCUGUAAUCAUUUUAAGGGUA [U72C A98U]
Second: GUUAACGGUCAUAGGCCAUGGAAACUAGGAGCACCAUUUCGCUGCCAGUGAAGAAAUGAACAAAGAAAAUCCGGGCCAGGCAGGCAUCAAAAGAAAUGGUCUUGCGCUCAACCAGAAAGUCUGUAAUCAUUUUAAGGGUA [U72C A98G]
The self-cleavage of the first is higher: 0.3 for the first, 0.03 for the second.

Work on GUUAACGGUCAUAGGCCAUGGAAACUAGGAGCACCAUUUCGCUGCCAGUGAAGAAAUGAACAAAGAAAAUCCGGGCCAGGCAGGCCUCAAAAGAAAUAGUCUUGCGCUCAACCAGAAAGUCUGUAAUCAUUUUAAGGGUA [U72C A86C] yielded a self-cleavage of 0.28.
